Patent US20080261267A1, “Cellulases from Rumen” (priority 2004, published 2008)

B1: pBKRR.22: rumen endo-beta-1,4-glucanase, sequences FIG. 11/19 (protein)
chain: MLLASFSLFSCGGSDGDDSTPTPSVSLQLVSQSIAEGAQVDAASTTVLTLNYNNPVRVTGNGVTLNGIAVKAKVSGNTSVEIPLTLVEGTVYTLKVAWGAIVAAADGKVVAPEFTLNFTTKGNQQPPIDENSPIAKKMGWGWNLGNHFDTSSGADGVRPQWGYWDNAKPTQVLYNNLRNAGTSTVRIGVTWGNYQNTSNWDIDANYIAEVRQNVEWAEAAGLNVILNMHHDEYWLDIKGAANNSSTNTNIKNRIEKTWKQIAEAFKDKGEFLIFESFNEIQDGGWGWGANRTDGGKQYKTLNEWNQLVVNTIRATGGNNATRWIGIPSYAANPSLALETGFVLPTDAANRLMVSVHFYDPSNFTLSPYVSDDSSEYKSGGYSEWGHTAAKGKADTGSNEDHVVAIFKKLHDKFVAKNIPVYIGEYGCVMHKNTRSNYFRNYYLEYVCRAAHEYGMPLCIWDNNQTGGGNEHHGYFNHTDGQYLNAMESLVKTMIKAATSDDASYTLESVYNKAPK
modifications: Description of sequence sequence derived from genomic DNA library from rumen ecosystem, particularly amino acid sequence of clones pBKRR 22, 6, 8 and 23;(see Figure 19)
B2: pBKRR.14: rumen endoglucanase, sequences FIG. 16/24; also capable of hydrolyzing xylan (protein)
chain: MINVLQHHPEVELSVDKTSVSFNRSGGEETFTVTSSTQPHVSADVSWVVVETGKIDKDHHTEVRVLAGANRKEASAGTLTVSCSDKKVSVSVKQEAFVAPSVASTTAVTPQMVFDAMGPGWNMGNHMDAISNGVSGETVWGNPKCTQATMDGVKAAGYKAVRICTTWEGHIGAAPAYALEQKWLDRVAEIVGYAEKAGLVAIVNTHHDESYWQDISKCYNNAANHEKVKDEVFSVWTQIAEKFKDKGEWLVFESFNEIQDGGWGWSDAFRKNPDAQYKVLNEWNQTFVDAVRSTGGQNATRWLGIPGYACNPGFTIAGLVLPKDYTTANRLMVAVHDYDPYDYTLKDPLIRQWGHTADADKRPSGDNEKAVVDVFNNLKAAYLDKGIPVYLGEMGCSRHTAADFPYQKYYMEYFCKAAADRLLPMYLWDNGAKGVGSERHAYIDHGTGQFVDEDARTLVGLMVKAVTTKDASYTLESVYNSAP
modifications: Description of sequence sequence derived from genomic DNA library from rumen ecosystem, particularly amino acid sequence of clones pBKRR 14 and 20-1; RR14=RR20-1;(see Figure 24)
notes: also capable of hydrolyzing xylan

Tests used:
Format in all cases: biochemical
[1] = pH-dependent activity and pH stability; details: cell lysates; CMC; 40° C.
Method: (§1) FIG. 3 represents Table 3 giving an overview over the biochemical properties of the cellulases according to the invention. Reaction was performed at the optimum pH and temperature for each done using CMC as substrate. […] The values for clones pBKRR.1, 9, 11, 13, 14, 16 and 22 are depicted. For each clone the following data are given: • maximum pH at which the remaining activity after 24 h incubation at the indicate pH is >90% (column “Stable at pH”). […] Activity was measured after 2 h incubation and compared with a control reaction in buffer lacking dimethylsulfoxide, • detergent resistance given by the remaining activity in the corresponding buffer (optimum pH) containing the indicate detergent at a concentration for 0 to 3%. […]
(§2) FIG. 4 a-c represent the results of the determination of pH and temperature optima showing graphically views of the pH-dependence activity and temperature-dependence activity of the polypeptides according to the invention. The pH optima of rumial endoglucanases were measured under conditions described in Example 5: 4% CMC, 0.5 mL of 50 mM buffer at the corresponding pH and 0.1 mg E. coli cell lysates, for 5-30 min, at 40° C. Effect of temperature on endoglucanase activity was measured in 50 mM sodium acetate buffer pH 5.6. […]

[2] = Detergent resistance (effect of surfactants on activity)
Method: The detergent resistance or in other words the effect of surfactants on the activity of the polypeptide of the invention was measured. […] Also, the effect of several commonly used inhibitors on the activity of the polypeptide of the invention was investigated. Sulfhydryl inhibitors such as N-ethylmaleimide, iodoacetate and p-chloromercuribenzoate were all inhibitory. The chelating agents EDTA (ethylenediaminetetraacetic acid) and EGTA (ethyleneglycoltetraacetic acid) a more efficient chelator of Ca^2+ (inhibition >30%) and O-phenanthroline (inhibition >71%) had essentially no effect on the activity of the polypeptides or were slightly stimulatory. In summary, the polypeptides of the invention are well suited to be used for the treatment of cellulosic textiles or fabrics, especially as an ingredient in a detergent composition, because of their high activity at high pH and high stability against metal ions or various components of laundry products such as surfactants, chelating agents or proteinases. In general, they are also suited to be used in compositions containing several commonly used inhibitors.
(§3) FIG. 3 represents Table 3 giving an overview over the biochemical properties of the cellulases according to the invention. Reaction was performed at the optimum pH and temperature for each done using CMC as substrate. […] The values for clones pBKRR.1, 9, 11, 13, 14, 16 and 22 are depicted. For each clone the following data are given: • maximum pH at which the remaining activity after 24 h incubation at the indicate pH is >90% (column “Stable at pH”). […] Activity was measured after 2 h incubation and compared with a control reaction in buffer lacking dimethylsulfoxide, • detergent resistance given by the remaining activity in the corresponding buffer (optimum pH) containing the indicate detergent at a concentration for 0 to 3%. […] The effect of mono- (Na^+, K^+, NH4^+, and divalent cations (Ca^2+, Mn^2+, Mg^2+, Sr^2+, Fe^2+, Cu^2+, Ni^2+, Co^2+, Zn^2+) was first examined by treating the enzyme with chelating agents (EDTA and EGTA) to remove any endogenous divalent cations, followed by adding cations to the reaction mixture.
To study the effect of cations, inhibitors and surfactants on endoglucanase activity, the conditions were as follows: All cations tested were added as chloride salts and tested at a concentration of 10 mM. […] The effects of detergents on the endoglucanase activity was analysed by adding of 1-3% (wt/vol) detergent to the enzyme solution. In all cases, the enzyme activity was assayed in triplicate using the standard cellulose assay described above and the residual activity was expressed as percent of the control value (without addition of chemicals).

Cation dependence = details: 10 to 100 mM
Method: as §3
[…] Inhibitors such as N-ethylmalemide, iodoacetate and p-chloromercuribenzoate at concentration from 1-5 mM were incubated in the presence of the enzyme for 30 min (30° C.) prior to the addition of the substrate (CMC). The effects of detergents on the endoglucanase activity was analysed by adding of 1-3% (wt/vol) detergent to the enzyme solution. In all cases, the enzyme activity was assayed in triplicate using the standard cellulose assay described above and the residual activity was expressed as percent of the control value (without addition of chemicals).

[3] = Thermal activity and thermostability; details: at the pH optima; CMC
Method: as §1, §2

Row | Molecule | activity at alkaline (pH 9.0-10.0) and acidophilic (3.5-4.0) conditions [1] | effect of SDS on activity ([2]; SDS 1 mM or higher) | effect of Triton X-100 on activity ([2]; Triton X-100 up to 1-3%) | stimulatory effect of Mg^2+ (Cation dependence; chloride salt) [%] | influence of mono- and divalent cations on activity (Cation dependence; chloride salts, after EDTA and EGTA treatment) | activity in the presence of SDS (% more active and stable) ([2]; SDS 1-3%, 2 h incubation, versus control without detergent) [%] | activity in the presence of Triton X-100 (% more active and stable) ([2]; Triton X-100 1-3%, 2 h incubation, versus control without detergent, pH and temperature per clone) [%] | temperature of improved activity and thermostability [3] [°C]
1 | B1 | without variation of enzyme activity | inhibited by SDS at concentrations higher than 1 mM | resistant to Triton X-100 up to 1-3% |  |  |  |  | 
2 | B2 |  |  |  | 127 | not influenced | 161 | 134 | 70
